Assay [1] deals with T1, SARS-CoV-2 nucleocapsid in fixed and permeabilised SARS-CoV-2 infected cells (SARS-CoV-2, UniProt P0DTC9 1-419).
T1 construct: whole, on cells; also called N antigen
Kind of assay: immunofluorescence assay.

For assay [2], the target named is T2, SARS-CoV-2 nucleocapsid protein (SARS-CoV-2, UniProt P0DTC9 1-419).
T2 construct: also called N protein
Kind of assay: ELISA on recombinant protein. (In an ELISA, binding on a coated surface is turned into a signal by an enzyme label.)

Assay [3] has as its target T3, spike glycoprotein of wild type SARS-CoV-2 virus (SARS-CoV-2, UniProt P0DTC2 14-1273). Kind of assay: cell-based or functional assay.
For assay [4], the target named is T4, MERS spike extracellular domain (Middle East respiratory syndrome …, UniProt K9N5Q8 18-1296).
T4 construct: extracellular domain
Put plainly: ELISA.

Assay [5] deals with T5, SARS-CoV-2 spike receptor binding domain (RBD) (SARS-CoV-2, UniProt P0DTC2 319-541).
T5 construct: also called SARS-CoV-2 RBD
Put plainly: ELISA.

Assay [6] deals with T6, Human coronavirus OC43 spike extracellular domain (human coronavirus OC43, UniProt P36334 14-1297).
T6 construct: extracellular domain
Put plainly: ELISA.

The target in a further assay is T7, SARS spike S1 subunit (severe acute respiratory syndrome …, UniProt P59594 14-667).
T7 construct: domain: S1 subunit
Kind of assay: ELISA.

The target in assay [7] is T8, SARS-CoV-2 spike S1 subunit (SARS-CoV-2, UniProt P0DTC2 16-685).
T8 construct: domain: S1 subunit
Kind of assay: ELISA.

The target in assay [8] is T3, spike glycoprotein of wild type …. Kind of assay: cell-based or functional assay. The source holds these as a separate data set.
The target of assay [9] is T9, SARS-CoV-2 spike S2 subunit (SARS-CoV-2, UniProt P0DTC2 686-1213).
T9 construct: domain: S2 subunit
Kind of assay: ELISA.

For assay [10], the target named is T10, SARS-CoV-2 spike extracellular domain (SARS-CoV-2, UniProt P0DTC2 14-1213).
T10 construct: extracellular domain; also called spike protein of SARS-CoV-2
Kind of assay: ELISA.

B1: EW 4C (antibody, V domains shown)
VH: EVQLVESGPGLVKPSETLSLTCSVSADSFKKGYYWGWIRQPPGKGLESIVNSFDSGTTRYNPSLWGRATVSDMSKWHFSLKLTSVTAADTAVYYCVRGTYGSGLHWGQGILVTVSS
VL: QTVVTQEPSLTVSPGGTVTLTCGSSVGTVASGHYPYWVQQKPGQAPRTLIYDTDNKQSWTPARFSGSLLGGKAALTLSGAQPEDEADYYCFLSHNDAWVFGGGTKLTVL
Consider B1, for which the binding result in assay [1] and in [2] was “binds” throughout.

B2: EY 2A (antibody, V domains shown)
VH: QVQLVESGAEVTKPGDSLIISCKGSGYAFTQYWIGWVRQKPGKGLEWMAMVYPDSSAVFAGGASGVRYRPPFQGQVTISADTSVNTAYLQWDSLKASDTAMYYCVRQERGSNTWYAGNSWGQGTLVTVSS
VL: DIVMTQSPLSLPVSPGEPASISCRSSQSLLHTDAYNYLDWYLQKPGQSPQLLIYLGSTRASGVPDRFSGSGSGTDFTLKISSVKAEDVGVYYCMQALQTPGTFGQGTKLEIK
Take B2: the binding result in assay [1] and in [2] was “binds” throughout.

B3: EY 3B (antibody, V domains shown)
VH: EVQLVESGAEVTKPGESLIISCKGSGYAFTQYWIGWVRQKPGKGLEWMAMVYPDSSAVFAGGASGVRYRPPFQGQVTISADTSVNTAYLQWDSLKASDTAMYYCVRQERGSNTWYAGNSWGQGTLVTVFS
VL: EIVLTQSPLSLPVSPGEPASISCRSSQSLLHTDAYNYLDWYLQKPGQSPQLLIYLGSTRASGVPDRFSGSGSGTDFTLKISSVKAEDVGVYYCMQALQTPGTFGQGTKVEIR
For the molecule B3, the binding result in assay [1] and in assay [2] was “binds” each time.

B4: EW 9C (antibody, V domains shown)
VH: EVQLVESGGGVVQPGASLRLSCVASGFTFNNFGFHWVRQAPGKGLEWLAVISYEGSKTYYAESLKGRFTISRDTSKNTVYLQMNSLRAEDTAVYYCARATSIFWFGEGRNWFDPWGQGTMVTVSS
VL: EIVLTQSPGTVSLSAGERATLSCRASQNVGTDLAWYVQRPGQAPRLLIYDTSNKATGIPARFSGRGSGTDFTLTIDSLEPEDFAVYYCQQRSNWPLTFGGGTKVEIR
Consider B4, for which the “Ct value of culture supernatant, after 5 days of incubation (virus control 13.0)” value in assay [3] is 22.7 Ct. Further, the “fold reduction of virus” value in [3] is roughly 832 fold. Also, the binding result in [4] was “binds”; in assay [5] it was “no binding”; in assay [6] it was “binds”; with SARS spike S1 subunit it was “no binding”; in assay [7], “no binding”. In addition, the “Neutralization by PRNT EC50” value in assay [8] was found to be 133 nM.

B5: FD 5D (antibody, V domains shown)
VH: EVQLVESGGGLVQPGGSLRLSCAASGFTFSSYSMNWVRQAPGKGLEWVSYISSSSSTIYYADPVKGRFTISRDNAKNSLYLQMNSLRAEDTAVYYCASPGGITAAGTSVLFGYYGMDVWGQGTMVTVSS
VL: not shown
On to B5, for which, in [3], the “Ct value of culture supernatant, after 5 days of incubation (virus control 13.0)” value was determined as 18.8 Ct. Moreover, in assay [3], the “fold reduction of virus” value was roughly 56 fold. Moreover, the binding result (in assay [4]; in [6]; in the assay with SARS spike S1 subunit; in assay [9]) was “no binding” each time. In addition, the “Neutralization by PRNT EC50” value in assay [8] came to 133 nM.

B6: FD 1D (antibody, V domains shown)
VH: EVQLVESGGGVVQPGRSLRLSCAASGFTFSSYAMHWVRQAPGKGLEWVAVISYDGSNKYYADSVKGRFTISRDNSKNTLYLQMNSLRAEDTAVYYCARAGSGSYLNWFDPWGQGTLVTVSS
VL: EIVLTQSPATLSLSPGERATLSCRASQSVSSYLAWYQQKPGQAPRLLIYDASNRATGIPARFSGSGSGTDFTLTISSLEPEDFAVYYCQQRSNWPITFGQGTRLEIK
As to B6, the binding result was “binds” in assay [10]; “binds” in assay [4]; “no binding” in assay [5]; “binds” in assay [6]; “binds” with SARS spike S1 subunit; “binds” in assay [9]. In addition, the binding result in [7] was “no binding”.

B7: FD 5E (antibody, V domains shown)
VH: EVQLVESGGVVVQPGGSLRLSCAASGFTFDDYAMHWVRQAPGKGLEWVSLISWDGGSTYYADSVKGRFTISRDNSKNSLYLQMNSLRAEDTALYYCAKDSVRFRYYYGMDVWGQGTTVTVSS
VL: EIVLTQSPATLSLSPGERATLSCRASQSVSSYLAWYQQKPGQAPRLLIYDASNRATGIPARFSGSGSGTDFTLTISSLEPEDFAVYYCQQRSNWPLTFGPGTKVDIK
Turning to B7, the binding result in assay [10] was “binds”; in assay [4] it was “no binding”; in assay [5], “no binding”; in assay [6], “no binding”; with SARS spike S1 subunit, “no binding”; in assay [9], “no binding”.

B8: EW 9B (antibody, V domains shown)
VH: EVQLVQSGAEVKKPGASVKVSCKASGYTFTSYYMHWVRQAPGQGLEWMGIINPSGGSTSYAQKFQGRVTMTRDTSTSTVYMELSSLRSEDTAVYYCAREDGVVPAANLMISLEDYYYYGMDVWGQGTTVTVSS
VL: EIVLTQSPATLSLSPGERATLSCRASQSVSSYLAWYQQKPGQAPRLLIYDASNRATGIPARFSGSGSGTDFTLTISSLEPEDFAVYYCQQRSNWPLTFGGGTKVDIK
In the case of B8, the binding result in assay [10] was “binds”; in assay [4], “no binding”; in assay [5], “no binding”; in assay [6] it was “no binding”; in the assay with SARS spike S1 subunit, “no binding”; in [9] it was “no binding”.
